Assays:
Test in all cases: cell-based or functional assay
[1] = molecular target: HIV-1 Env of pseudovirus 6244_13_B5_4576 (clade B (T/F)) (HIV-1)
[2] = molecular target: HIV-1 Env of pseudovirus Du156.12 (clade C) (HIV-1)
[3] = molecular target: HIV-1 Env of pseudovirus Ce704809221_1B3 (clade C (T/F)) (HIV-1)
[4] = molecular target: HIV-1 Env of pseudovirus 6240_08_TA5_4622 (clade B (T/F)) (HIV-1)
[5] = molecular target: HIV-1 Env of pseudovirus 6535.3 (clade B) (HIV-1)
[6] = molecular target: HIV-1 Env of pseudovirus CNE19 (clade BC) (HIV-1)
[7] = molecular target: HIV-1 Env of pseudovirus Ce703010054_2A2 (clade C (T/F)) (HIV-1)
[8] = molecular target: HIV-1 Env of pseudovirus CAP45.2.00.G3 (clade C) (HIV-1)
[9] = molecular target: HIV-1 Env of pseudovirus Q461.e2 (clade A) (HIV-1)
[10] = molecular target: HIV-1 Env of pseudovirus CAAN5342.A2 (clade B) (HIV-1)
[11] = molecular target: HIV-1 Env of pseudovirus CNE21 (clade BC) (HIV-1)
[12] = molecular target: HIV-1 Env of pseudovirus CNE17 (clade BC) (HIV-1)
[13] = molecular target: HIV-1 Env of pseudovirus Ce2010_F5 (clade C (T/F)) (HIV-1)
[14] = molecular target: HIV-1 Env of pseudovirus ZM197M.PB7 (clade C) (HIV-1)
[15] = molecular target: HIV-1 Env of pseudovirus TRJO4551.58 (clade B) (HIV-1)
[16] = molecular target: HIV-1 Env pseudovirus 231965.c01 (HIV-1)
[17] = molecular target: HIV-1 Env pseudovirus 6545.v4.c1 (HIV-1)
[18] = molecular target: HIV-1 Env pseudovirus 263-8 (HIV-1)
[19] = molecular target: HIV-1 Env pseudovirus 9004SS_A3_4 (HIV-1)
[20] = molecular target: HIV-1 Env pseudovirus BJOX028000.10.3 (HIV-1)
[21] = molecular target: HIV-1 Env pseudovirus BJOX009000.02.4 (HIV-1)
[22] = molecular target: HIV-1 Env pseudovirus BJOX010000.06.2 (HIV-1)
[23] = molecular target: HIV-1 Env pseudovirus 231966.c02 (HIV-1)
[24] = molecular target: HIV-1 Env pseudovirus X1632_S2_B10 (HIV-1)
[25] = molecular target: HIV-1 Env pseudovirus C4118.c09 (HIV-1)
[26] = molecular target: HIV-1 Env of pseudovirus BJOX028000.10.3 (clade CRF01_AE (T/F)) (HIV-1)
[27] = molecular target: HIV-1 Env of pseudovirus R3265.c06 (clade CRF01_AE) (HIV-1)
[28] = molecular target: HIV-1 Env of pseudovirus X1254_c3 (clade G) (HIV-1)
[29] = molecular target: HIV-1 Env of pseudovirus C1080.c03 (clade CRF01_AE) (HIV-1)
[30] = molecular target: HIV-1 Env of pseudovirus T255-34 (clade CRF02_AG) (HIV-1)
[31] = molecular target: HIV-1 Env of pseudovirus X2088_c9 (clade G) (HIV-1)
[32] = molecular target: HIV-1 Env of pseudovirus T251-18 (clade CRF02_AG) (HIV-1)

N49P11 (antibody)
IC50 [1]: 1.12 µg/mL | IC80 [1]: 5.45 µg/mL | MPI [1]: 100 | IC50 [2]: 2.4 µg/mL | IC80 [2]: 12 µg/mL | MPI [2]: 100 | IC50 [3]: 0.644 µg/mL | IC80 [3]: 3.3 µg/mL | MPI [3]: 100 | IC50 [4]: 0.72 µg/mL | IC80 [4]: 3 µg/mL | MPI [4]: 100 | IC50 [5]: 8.22 µg/mL | IC80 [5]: 17.2 µg/mL | MPI [5]: 100 | IC50 [6]: 0.437 µg/mL | IC80 [6]: 5.5 µg/mL | MPI [6]: 100 | IC50 [7]: 1.42 µg/mL | IC80 [7]: 7.51 µg/mL | MPI [7]: 100 | IC50 [8]: 5.25 µg/mL | IC80 [8]: 24 µg/mL | MPI [8]: 100 | IC50 [9]: 0.363 µg/mL | IC80 [9]: 2.15 µg/mL | MPI [9]: 100 | IC50 [10]: 9.03 µg/mL | IC80 [10]: 20.8 µg/mL | MPI [10]: 100 | IC50 [11]: 7.4 µg/mL | IC80 [11]: 21.9 µg/mL | MPI [11]: 100 | IC50 [12]: 6.68 µg/mL | IC80 [12]: 25.6 µg/mL | MPI [12]: 100 | IC50 [13]: 0.38 µg/mL | IC80 [13]: 3.27 µg/mL | MPI [13]: 100 | IC50 [14]: 0.303 µg/mL | IC80 [14]: 1.59 µg/mL | MPI [14]: 100 | IC50 [15]: 0.183 µg/mL | IC80 [15]: 0.656 µg/mL | MPI [15]: 100

N49P18.1 (antibody)
IC50 [1]: 33.4 µg/mL | IC80 [1]: > 50 µg/mL | MPI [1]: 61 | IC50 [2]: 1.88 µg/mL | IC80 [2]: 6.81 µg/mL | MPI [2]: 100 | IC50 [3]: 41.6 µg/mL | IC80 [3]: > 50 µg/mL | MPI [3]: 59 | IC50 [4]: 35.2 µg/mL | IC80 [4]: > 50 µg/mL | MPI [4]: 60 | IC50 [5]: 2.06 µg/mL | IC80 [5]: 11.4 µg/mL | MPI [5]: 100 | IC50 [6]: 2.34 µg/mL | IC80 [6]: 9.64 µg/mL | MPI [6]: 99 | IC50 [7]: 4.15 µg/mL | IC80 [7]: 11.6 µg/mL | MPI [7]: 98 | IC50 [8]: 5.14 µg/mL | IC80 [8]: 33.1 µg/mL | MPI [8]: 88 | IC50 [9]: 24.7 µg/mL | IC80 [9]: > 50 µg/mL | MPI [9]: 68 | IC50 [10]: 16.1 µg/mL | IC80 [10]: 49.1 µg/mL | MPI [10]: 83 | IC50 [11]: 7.93 µg/mL | IC80 [11]: 29.2 µg/mL | MPI [11]: 95 | IC50 [12]: 39.7 µg/mL | IC80 [12]: > 50 µg/mL | MPI [12]: 56 | IC50 [13]: 29 µg/mL | IC80 [13]: > 50 µg/mL | MPI [13]: 68 | IC50 [14]: 12.5 µg/mL | IC80 [14]: 49.8 µg/mL | MPI [14]: 84 | IC50 [15]: 4.44 µg/mL | IC80 [15]: 14.7 µg/mL | MPI [15]: 99

N49P19 (antibody)
IC50 [16]: > 50 µg/mL | IC80 [16]: > 50 µg/mL | MPI [16]: 22 | IC50 [17]: > 50 µg/mL | IC80 [17]: > 50 µg/mL | MPI [17]: 2 | IC50 [18]: 0.344 µg/mL | IC80 [18]: 1.51 µg/mL | MPI [18]: 99 | IC50 [19]: 0.661 µg/mL | IC80 [19]: 3.09 µg/mL | MPI [19]: 100 | IC50 [20]: 7 µg/mL | IC80 [20]: > 50 µg/mL | MPI [20]: 80 | IC50 [21]: 3.66 µg/mL | IC80 [21]: 25.6 µg/mL | MPI [21]: 87 | IC50 [22]: 4.16 µg/mL | IC80 [22]: 19.1 µg/mL | MPI [22]: 96 | IC50 [23]: 0.653 µg/mL | IC80 [23]: 4.55 µg/mL | MPI [23]: 100 | IC50 [24]: > 50 µg/mL | IC80 [24]: > 50 µg/mL | MPI [24]: 14 | IC50 [25]: 0.386 µg/mL | IC80 [25]: 1.36 µg/mL | MPI [25]: 100

PG9 (antibody)
IC50, titer in TZM.bl cells [26]: 1.1 µg/mL | IC80, titer in TZM.bl cells [26]: 21.5 µg/mL | IC50, titer in TZM.bl cells [27]: 0.163 µg/mL | IC80, titer in TZM.bl cells [27]: 0.535 µg/mL | IC50, titer in TZM.bl cells [28]: 0.065 µg/mL | IC80, titer in TZM.bl cells [28]: 0.304 µg/mL | IC50, titer in TZM.bl cells [29]: 0.004 µg/mL | IC80, titer in TZM.bl cells [29]: 0.013 µg/mL | IC50, titer in TZM.bl cells [30]: 0.023 µg/mL | IC80, titer in TZM.bl cells [30]: 0.134 µg/mL | IC50, titer in TZM.bl cells [31]: > 50 µg/mL | IC80, titer in TZM.bl cells [31]: > 50 µg/mL | IC50, titer in TZM.bl cells [32]: > 50 µg/mL | IC80, titer in TZM.bl cells [32]: > 50 µg/mL

PG16 (antibody)
IC50, titer in TZM.bl cells [26]: > 50 µg/mL | IC80, titer in TZM.bl cells [26]: > 50 µg/mL | IC50, titer in TZM.bl cells [27]: 0.016 µg/mL | IC80, titer in TZM.bl cells [27]: 0.146 µg/mL | IC50, titer in TZM.bl cells [28]: 0.023 µg/mL | IC80, titer in TZM.bl cells [28]: 0.218 µg/mL | IC50, titer in TZM.bl cells [29]: 0.001 µg/mL | IC80, titer in TZM.bl cells [29]: 0.003 µg/mL | IC50, titer in TZM.bl cells [30]: 0.024 µg/mL | IC80, titer in TZM.bl cells [30]: 0.125 µg/mL | IC50, titer in TZM.bl cells [31]: > 50 µg/mL | IC80, titer in TZM.bl cells [31]: > 50 µg/mL | IC50, titer in TZM.bl cells [32]: 1.72 µg/mL | IC80, titer in TZM.bl cells [32]: 44.7 µg/mL
